Test [1] addresses T1, human TREM2 extracellular domain (ECD) (Homo sapiens, UniProt Q9NZC2).
Test [2] has as its target T1, human TREM2 extracellular domain (ECD). Nature of the test: SPR. A general note: In SPR one partner is held on a chip, and binding of the other changes the refractive index at the surface.

Positions count from the first letter of the chain named. Read-outs that look alike come from different tables or passages of the source.

T1 sequence (Q9NZC2 19-174): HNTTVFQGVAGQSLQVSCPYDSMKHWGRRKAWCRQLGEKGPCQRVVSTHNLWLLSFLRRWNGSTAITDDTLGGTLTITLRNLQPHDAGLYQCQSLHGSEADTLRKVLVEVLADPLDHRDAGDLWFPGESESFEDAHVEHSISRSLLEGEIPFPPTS

B1: R18-12-19 (antibody, V domains shown)
VH: AVQLVESGGGLVQPKESLKISCAASGFTFSNAAMYWVRQAPGKGLEWVARIRTKPNNYATYYTDSVKGRFTISRDDSKSMVYLQMDNLKTEDTAMYYCTAEGSSRNWFAYWGQGTLVTVSS
VL: DIVMTQSPSSLAVSAGETVTIDCKSSQSLLYSGNQKTYLAWYQQKPGQSPKLLIYWASTRQSGVPDRFIGSGSGTDFTLTISSVQAEDLAIYYCQQYYDTPLTFGSGTKLEIK
For the molecule B1, in test [1], the binding result was “binds”.

B2: R18-12-23 (antibody, V domains shown)
VH: AVQLVESGGGLVQPKESLKISCAASAFSFSNVAMYWVRQAPGKGLEWIARIRTKPNNYATYYADSVKGRFTISREDSKSMVYLQMDNLKTEDTATYYCTADNYPGGGFRYWGQGTLVTVSS
VL: B1 VL
As to B2, in test [1], the binding result was “binds”.

B3: R18-13-35 (antibody, V domains shown)
VH: AVQLVESGGGLVQPRESLKISCAASGFTFSNAAMYWVRQAPGKGLEWVARIRTKANNYATNYADSLKGRFIISRDDSKSVVYLQMGNLKPEDTAMYYCTAGDTMGPHWFVYWGQGTLVTVSS
VL: B1 VL
As to B3, in test [1], the binding result is listed as “binds”.

B4: R19-11-37 (antibody, V domains shown)
VH: AVQLVESGGGLVQPKESLKISCAASGFTFSNAAMYWVRQAPGKGLEWVARIRTKPNNYATYYADSVKGRFTISRDDSKSMVYLQMDNLKTEDTAMYYCIASRYGYDFDYWGQGVMVTVSS
VL: B1 VL
Consider B4, for which the binding result in test [1] is listed as “binds”.

B5: R18-12-24 (antibody, V domains shown)
VH: B1 VH with T63A, E101D, G102Y, R105Y, N106I, W107R
VL: B1 VL
Take B5: the binding result in test [1] is given as “binds”.

B6: R19-11-41 (antibody, V domains shown)
VH: B4 VH with I99T, S101E, R102G, Y103I, G104T, Y105T, D106W
VL: B1 VL
As for B6, in test [1], the binding result is recorded as “binds”.

B7: R18-13-31 (antibody, V domains shown)
VH: AVQLVESGGGLVQPIESLKISCAASGFTFTNAAMYWVRQAPGKGLEWIARIRTKPNDYATYYADSVKGRFTISRDDSESVVYLQMDNLKTEDTATYYCTAAWDYYSSAFDYWGQGVMVTVSS
VL: B1 VL
As for B7, the binding result in test [1] is “binds”.

B8: R19-11-42 (antibody, V domains shown)
VH: AVQLVESGGGLVHPQESLKISCLASGLSFSSAAMYWVRQVPGKGLEWLARIRTKPNNYATFYADSVKGRFTISRDDSKSMVFLQMDDLNTEDTAIYYCTASVFTVAFEYWGQGVMVTVSS
VL: B1 VL
In the case of B8, the binding result in test [1] is on record as “binds”.

B9: R18-13-32 (antibody, V domains shown)
VH: AVQLVESGGGLVQPKESLKISCAASGFTFSYAAMYWVRQAPGKGLEWVARIRSKPNNYATYYADSVKGRFTISRDDSKSMVYLQMDNLKTEDTAMYYCTAPYYYDGSPFEYWGQGVMVTVSS
VL: B1 VL
For B9, the binding result in test [1] is listed as “binds”.

B10: R18-13-29 (antibody, V domains shown)
VH: AVQLVESGGGLVQPKESLKVSCAASGFTFSNADIYWVRQAPGKGLEWVARIRTKPNNYATYYGDSVKGRFTISRDDSKSMVYLQMDNLKTEDTAMYYCTAGEGLWVNYFDYWGQGVMVTVSS
VL: B1 VL
As for B10, the binding result in test [1] is “binds”.

B11: R18-12-22 (antibody, V domains shown)
VH: B1 VH with M34I, T63A, E101G, G102Y, S103Y, R105G, N106G, W107P
VL: B1 VL
With B11, in test [1], the binding result is listed as “binds”.

B12: R19-11-36 (antibody, V domains shown)
VH: AVQLVESGGGLVQPKESLKISCAAAGFTFTSAAMYWVRQAPGKGLEWIARIRTKADNIATNYADSVKGRFTISRDDSKNMVYLQMDDLKTEDTAMYYCTAGITTGGFEYWGQGVMVTVSS
VL: B1 VL
For the molecule B12, in test [1], the binding result is “binds”.

B13: R19-11-40 (antibody, V domains shown)
VH: B4 VH with Y35F, K43E, N57S, I99T, S101D, R102Y, Y103P, Y105M, D106G, Y109S
VL: B1 VL
On to B13, for which, in test [1], the binding result is recorded as “binds”.

B14: R18-12-21 (antibody, V domains shown)
VH: B1 VH with I20L, N31D, T63A, E101L, G102F, S103L, S104I, R105V, N106A, W107P
VL: B1 VL
Turning to B14, the binding result in test [1] is “binds”.

B15: R18-12-25 (antibody, V domains shown)
VH: AVQLVESGGGLVRPQESLKISCAASGFTFRDTAMYWVRQAPGKGLEWVARIRTKPNDYATYFADSVKGRFTISRDDSKSMVYLQMDTLKTEDTAMYYCTAPINNWDWFAYWGQGTLVTVSS
VL: B1 VL
For B15, the binding result in test [1] is reported as “binds”.

B16: R18-13-30 (antibody, V domains shown)
VH: AVQLVESGGGLVQPKESLKVSCAASGFTFSHAAMYWVRQAPGKGLEWVARITTEPNNYATNYADSVKGRFTISRDDSKSMVFLQMDNMKTEDTAMYYCTAEVRVYPYYFDYWGQGVMVTVSS
VL: B1 VL
On to B16, for which the binding result in test [1] was “binds”.

B17: R18-13-28 (antibody, V domains shown)
VH: AVQLVESGGGLVQPKESLKISCAASGFTFSNAAMYWVRQAPGKGLEWVARIRTKTNNYATNYADSVKGRFTISRDDSKSMVYLQMDNLKTEDTAMYYCSAARGGWYLWLDYWGQGVMVTVAS
VL: B1 VL
Take B17: the binding result in test [1] is “binds”.

B18: R18-13-27 (antibody, V domains shown)
VH: AVQLVESGGGLVQPKESLKISCAASGFTFSNAAMYWVRQAPGKGLEWVARIRTKPNYHATYYADSVKGRFTISRDDSKSMVYLQMDNLKAEDTAIYYCAASVLYTADSLDYWGQGVMVTVSS
VL: B1 VL
B18: the binding result in test [1] is “binds”.

B19: R18-12-20 (antibody, V domains shown)
VH: B1 VH with F29L, N31T, A32V, T60I, T63A, E101P, S103I, S104I, N106A, W107P
VL: B1 VL
In the case of B19, the binding result in test [1] was “binds”.

B20: R19-11-38 (antibody, V domains shown)
VH: B4 VH with I99T, S101A, R102F, D106Y
VL: B1 VL
On to B20, for which, in test [1], the binding result is “binds”.

B21: hu3.10C2 G106hD (antibody, V domains shown)
VH: EVQLVESGGGLVQPGGSLKLSCATSGFPFSNVWMHWVRQASGKGLEWIAHIKAKSDNYATYYAESVKGRFTISRDDSKTTIYLQMNSLKTEDTAVYYCTDLDYWGQGTTVTVSS
VL: DVVMTQSPLSLPVTPGEPASISCRSSRSLLTSKGITSLYWYLQKPGQSPQLLIYRMSNLASGIPDRFSGSGSGTDFTLKISRVEAEDVGVYYCAQFLVYPYTFGPGTKVEIK
On to B21, for which the binding result in test [2] is “binds”.

B22: hu3.10C2 D116hE (antibody, V domains shown)
VH: B21 VH with D100G, D102E
VL: B21 VL
As for B22, in test [2], the binding result is reported as “binds”.
